The text below walks through data of article PMC11853100.

The assay concerns the target Streptococcus pneumoniae pneumolysin, recombinant (Streptococcus pneumoniae strain R6) (UniProt Q04IN8). The assay can be described thus: ITC; chaperone in the syringe, Ply in the sample cell; 20 mM MES, 100 mM NaCl, 1 mM beta-mercaptoethanol, 10% glycerol, pH 6.5, 25 C; independent binding model.

Broadly, the stoichiometry N is the number of molecules, sites or subunits per partner or assembly.

For the substance “Streptococcus pneumoniae SlrA (from UniProt Q8DQG5 19-267) (enzyme)”, the dH is -35.6 kcal/mol and the stoichiometry N amounted to 0.84.
